Patent CN109957012A

Key:
[1] = molecular target: H7N9病毒的血凝素HA (H7N9 influenza virus); experiment: ELISA of 293F transfection supernatant (well A, supernatant)
[2] = molecular target: H7N9病毒的血凝素HA (H7N9 influenza virus); experiment: ELISA of 293F transfection supernatant (well B, supernatant)
[3] = molecular target: H7N9病毒的血凝素HA (H7N9 influenza virus); experiment: ELISA of 293F transfection supernatant (well C, supernatant)

B1: 抗H7N9全人源单克隆抗体8E17 (antibody, V domains shown)
VH: QVQLVESGGGVVQPGRSLRLSCAASGFIFSNYGMHWVRQAPGRGLEWVAVIWSDGTTTYYADSFKGRFTISSDNSKNTVYLQMNSLRADDSAIYYCARGDLDVVQVAAVTKLWDYWGQGTLVTVSS
VL: QSVLTQPPSASGSLGRSVTISCTGTSSDVGGYNYVSWYQQHPGKVPKLLVYEVTKRPSGVPDRFSGSKSGNTASLTVSGLQAEDEADYYCSSYAVSNNFVFGTGTKLTVTV
absorbance at 450 nm (450) [1]: 3 OD450
absorbance at 450 nm (450) [2]: 3.12 OD450
absorbance at 450 nm (450) [3]: 2.96 OD450
